In data set [1] the test system is HeLa Kyoto. Put plainly: thermal stability score vs G1/S (z-score of summed log2 fold changes over temperatures); higher = more thermally stable than in G1/S.
In data set [2] the test system is HeLa Kyoto. Put plainly: solubility in G1/S (NP-40 vs SDS abundance) (log2 ratio); higher = more soluble. Particulars: cell cycle stage: G1/S.
Data set [3] has as its system HeLa Kyoto. Put plainly: melting temperature (median over replicates), in situ; higher = more thermally stable.
Data set [4] deals with HeLa Kyoto. Put plainly: solubility change mitosis vs G1/S (difference of NP-40 vs SDS log2 ratios) (log2 ratio difference); higher = more soluble in mitosis.
[5] abbreviates: cell cycle stage: early G1 (4.5 h after nocodazole release).

These results are taken from the supplement of paper PMC5998384.
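Wherever melting temperature (median over replicates), in situ is given: HeLa Kyoto cells synchronized by double thymidine or nocodazole block, proteins quantified by TMT10plex mass spectrometry, three independent biological replicates.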
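Wherever solubility change mitosis vs G1/S (difference of NP-40 vs SDS log2 ratios) is given: synchronized HeLa Kyoto cells (double thymidine block for G1/S, nocodazole release for mitosis), protein amounts in NP-40 versus SDS lysates quantified by mass spectrometry, three biological replicates.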
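Wherever solubility in G1/S (NP-40 vs SDS abundance) is given: HeLa Kyoto cells arrested at G1/S by double thymidine block, proteins quantified by TMT10plex mass spectrometry in mild NP-40 versus SDS extracts, three biological replicates.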
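Wherever thermal stability score vs G1/S (z-score of summed log2 fold changes over temperatures) is given: synchronized HeLa Kyoto cells, proteins quantified by TMT10plex mass spectrometry, three biological replicates, mitosis taken 0.5 h after nocodazole release, G1/S directly after double thymidine block.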

Take “MAETLSGLGDSGAAGAAALSSASSETGTRRLSDLRVIDLRAELRKRNVDSSGNKSVLMERLKKAIEDEGGNPDEIEITSEGNKKTSKRSSKGRKPEEEGVEDNGLEENSGDGQEDVETSLENLQDIDIMDISVLDEAEIDNGSVADCVEDDDADNLQESLSDSRELVEGEMKELPEQLQEHAIEDKETINNLDTSSSDFTILQEIEEPSLEPENEKILDILGETCKSEPVKEESSELEQPFAQDTSSVGPDRKLAEEEDLFDSAHPEEGDLDLASESTAHAQSSKADSLLAVVKREPAEQPGDGERTDCEPVGLEPAVEQSSAASELAEASSEELAEAPTEAPSPEARDSKEDGRKFDFDACNEVPPAPKESSTSEGADQKMSSPEDDSDTKRLSKEEKGRSSCGRNFWVSGLSSTTRATDLKNLFSKYGKVVGAKVVTNARSPGARCYGFVTMSTAEEATKCINHLHKTELHGKMISVEKAKNEPVGKKTSDKRDSDGKKEKSSNSDRSTNLKRDDKCDRKDDAKKGDDGSGEKSKDQDDQKPGPSERSRATKSGSRGTERTVVMDKSKGVPVISVKTSGSKERASKSQDRKSASREKRSVVSFDKVKEPRKSRDSESHSRVRERSEREQRMQAQWEREERERLEIARERLAFQRQRLERERMERERLERERMHVEHERRREQERIHREREELRRQQELRYEQERRPAVRRPYDLDRRDDAYWPEAKRAALDERYHSDFNRQDRFHDFDHRDRGRYPDHSVDRREGSRSMMGEREGQHYPERHGGPERHGRDSRDGWGGYGSDKRMSEGRGLPPPPRRDWGDHGRREDDRSWQGTADGGMMDRDHKRWQGGERSMSGHSGPGHMMNRGGMSGRGSFAPGGASRGHPIPHGGMQGGFGGQSRGSRPSDARFTRRY [SAFB]”: the figures for the thermal stability score in the data set on HeLa Kyoto [1] (setting [5]) and with HeLa Kyoto [1] (cell cycle stage: mitosis) were 0.453 and 0.986, respectively. Besides, the “solubility in G1/S (log2)” value in the data set on HeLa Kyoto [2] is -0.896. In addition, the values for the melting temperature in the data set with HeLa Kyoto [3] (cell cycle stage: G1/S) and in the data set on HeLa Kyoto [3] (cell cycle stage: mitosis) were 50 °C and 50.5 °C, respectively. Further, in the data set with HeLa Kyoto [4], the “solubility change mitosis (log2)” value stood at 0.541.

In the case of “MAETYDFLFKFLVIGSAGTGKSCLLHQFIENKFKQDSNHTIGVEFGSRVVNVGGKTVKLQIWDTAGQERFRSVTRSYYRGAAGALLVYDITSRETYNSLAAWLTDARTLASPNIVVILCGNKKDLDPEREVTFLEASRFAQENELMFLETSALTGENVEEAFLKCARTILNKIDSGELDPERMGSGIQYGDASLRQLRQPRSAQAVAPQPCGC [RAB4B]”, the thermal stability score was -1.18 with HeLa Kyoto [1] (setting [5]) and -2.73 with HeLa Kyoto [1] (cell cycle stage: mitosis). Further, in the data set on HeLa Kyoto [2], the “solubility in G1/S (log2)” value turned out to be 0.181. Further, the melting temperature in the data set with HeLa Kyoto [3] (cell cycle stage: G1/S) was determined as 56.8 °C; in the data set on HeLa Kyoto [3] (cell cycle stage: mitosis), 57.9 °C. The “solubility change mitosis (log2)” value in the data set on HeLa Kyoto [4] is -0.29.

Turning to “MAFANLRKVLISDSLDPCCRKILQDGGLQVVEKQNLSKEELIAELQDCEGLIVRSATKVTADVINAAEKLQVVGRAGTGVDNVDLEAATRKGILVMNTPNGNSLSAAELTCGMIMCLARQIPQATASMKDGKWERKKFMGTELNGKTLGILGLGRIGREVATRMQSFGMKTIGYDPIISPEVSASFGVQQLPLEEIWPLCDFITVHTPLLPSTTGLLNDNTFAQCKKGVRVVNCARGGIVDEGALLRALQSGQCAGAALDVFTEEPPRDRALVDHENVISCPHLGASTKEAQSRCGEEIAVQFVDMVKGKSLTGVVNAQALTSAFSPHTKPWIGLAEALGTLMRAWAGSPKGTIQVITQGTSLKNAGNCLSPAVIVGLLKEASKQADVNLVNAKLLVKEAGLNVTTSHSPAAPGEQGFGECLLAVALAGAPYQAVGLVQGTTPVLQGLNGAVFRPEVPLRRDLPLLLFRTQTSDPAMLPTMIGLLAEAGVRLLSYQTSLVSDGETWHVMGISSLLPSLEAWKQHVTEAFQFHF [PHGDH]”, the thermal stability score in the data set on HeLa Kyoto [1] (setting [5]) was -2.03; in the data set on HeLa Kyoto [1] (cell cycle stage: mitosis) it was -1.42. For the same sequence, the “solubility in G1/S (log2)” value in the data set on HeLa Kyoto [2] was found to be 0.233. For the same sequence, the values for the melting temperature with HeLa Kyoto [3] (cell cycle stage: G1/S) and in the data set on HeLa Kyoto [3] (cell cycle stage: mitosis) were 55.9 °C and 55.4 °C, respectively. The “solubility change mitosis (log2)” value in the data set with HeLa Kyoto [4] amounted to 0.0444.

As for “MAGAAPRVRYLAGFCCPLGGLAAGKPRVLCHEAEVFLSTGSELVYVYDQEGGLLTAAFRFPDQVWHLELLAPRRLLYALCARRGLYCLSLDHPGRSRSTSQDDRDSEDGDQPSPVIPVDPDACILPDAALCAFTLLDSVLVTLVQGPARWKMQLFEQPCPGEDPRPGGQIGEVELSSYTPPAGVPGKPAAPHFLPVLCSVSPSGSRVPHDLLGGSGGFTLEDALFGLLFGADATLLQSPVVLCGLPDGQLCCVILKALVTSRSAPGDPNALVKILHHLEEPVIFIGALKTEPQAAEAAENFLPDEDVHCDCLVAFGHHGRMLAIKASWDESGKLVPELREYCLPGPVLCAACGGGGRVYHSTPSDLCVVDLSRGSTPLGPEQPEEGPGGLPPMLCPASLNICSVVSLSASPRTHEGGTKLLALSAKGRLMTCSLDLDSEMPGPARMTTESAGQKIKELLSGIGNISERVSFLKKAVDQRNKALTSLNEAMNVSCALLSSGTGPRPISCTTSTTWSRLQTQDVLMATCVLENSSSFSLDQGWTLCIQVLTSSCALDLDSACSAITYTIPVDQLGPGARREVTLPLGPGENGGLDLPVTVSCTLFYSLREVVGGALAPSDSEDPFLDECPSDVLPEQEGVCLPLSRHTVDMLQCLRFPGLAPPHTRAPSPLGPTRDPVATFLETCREPGSQPAGPASLRAEYLPPSVASIKVSAELLRAALKDGHSGVPLCCATLQWLLAENAAVDVVRARALSSIQGVAPDGANVHLIVREVAMTDLCPAGPIQAVEIQVESSSLADICRAHHAVVGRMQTMVTEQATQGSSAPDLRVQYLRQIHANHETLLREVQTLRDRLCTEDEASSCATAQRLLQVYRQLRHPSLILL [FAAP100]”, the thermal stability score is -0.383 in the data set with HeLa Kyoto [1] (setting [5]) and 0.0611 in the data set on HeLa Kyoto [1] (cell cycle stage: mitosis). In addition, the “solubility in G1/S (log2)” value in the data set on HeLa Kyoto [2] was 0.0643. Moreover, the melting temperature with HeLa Kyoto [3] (cell cycle stage: G1/S) is 54 °C; in the data set on HeLa Kyoto [3] (cell cycle stage: mitosis), 52.6 °C. Further, in the data set with HeLa Kyoto [4], the “solubility change mitosis (log2)” value was -0.00216.

Regarding “MAGASELGTGPGAAGGDGDDSLYPIAVLIDELRNEDVQLRLNSIKKLSTIALALGVERTRSELLPFLTDTIYDEDEVLLALAEQLGNFTGLVGGPDFAHCLLPPLENLATVEETVVRDKAVESLRQISQEHTPVALEAYFVPLVKRLASGDWFTSRTSACGLFSVCYPRASNAVKAEIRQQFRSLCSDDTPMVRRAAASKLGEFAKVLELDSVKSEIVPLFTSLASDEQDSVRLLAVEACVSIAQLLSQDDLETLVMPTLRQAAEDKSWRVRYMVADRFSELQKAMGPKITLNDLIPAFQNLLKDCEAEVRAAAAHKVKELGENLPIEDRETIIMNQILPYIKELVSDTNQHVKSALASVIMGLSTILGKENTIEHLLPLFLAQLKDECPDVRLNIISNLDCVNEVIGIRQLSQSLLPAIVELAEDAKWRVRLAIIEYMPLLAGQLGVEFFDEKLNSLCMAWLVDHVYAIREAATNNLMKLVQKFGTEWAQNTIVPKVLVMANDPNYLHRMTTLFCINALSEACGQEITTKQMLPIVLKMAGDQVANVRFNVAKSLQKIGPILDTNALQGEVKPVLQKLGQDEDMDVKYFAQEAISVLALA [PPP2R1B]”, the figures for the thermal stability score with HeLa Kyoto [1] (setting [5]) and in the data set with HeLa Kyoto [1] (cell cycle stage: mitosis) were 1.92 and 2.96, respectively. For the same sequence, the “solubility in G1/S (log2)” value with HeLa Kyoto [2] stood at 0.391. The melting temperature in the data set on HeLa Kyoto [3] (cell cycle stage: G1/S) was 49.2 °C; with HeLa Kyoto [3] (cell cycle stage: mitosis) it was 49.6 °C. For the same sequence, the “solubility change mitosis (log2)” value with HeLa Kyoto [4] is -0.0603.
